Laboratory results: patent publication US20260285984 (published 2026)

Target: PD-1 (human)
Assay: SPR (range 50-70 nM)

Sequence of PD-1 (human) (chain, as listed by the source): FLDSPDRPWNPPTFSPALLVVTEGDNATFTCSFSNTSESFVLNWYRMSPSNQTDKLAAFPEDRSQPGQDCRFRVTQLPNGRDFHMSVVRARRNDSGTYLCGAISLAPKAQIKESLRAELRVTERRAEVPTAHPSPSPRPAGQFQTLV

B1: PD-1 agonist VHH (antibody, V domains shown)
VH: EVQLVESGGALVQPGGSLRLSCAASGFTFSSYAMTWVRQAPGKGPEWVSAIASDGASTSYLDSVKGRFTVSRDNAKNTLYLQMNSLKPEDTAVYYCARGGYLTYDRYGQGTQVTVSS
Kd: ~60 nM
